# Measurements reported in patent US20100190693.
# How the values were obtained:
# [1] = molecular target: GST-TORC2 (aa 161-181) Ser171Ala (UniProt Q53ET0)
# [2] = molecular target: T1, GST-TORC2 (aa 161-181), wild-type (UniProt Q53ET0)
# T1 sequence: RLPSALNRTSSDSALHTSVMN
# Sequence of GST-TORC2 (aa 161-181) Ser171Ala (Q53ET0 whole entry S171A, looked up, the tested form may be a part): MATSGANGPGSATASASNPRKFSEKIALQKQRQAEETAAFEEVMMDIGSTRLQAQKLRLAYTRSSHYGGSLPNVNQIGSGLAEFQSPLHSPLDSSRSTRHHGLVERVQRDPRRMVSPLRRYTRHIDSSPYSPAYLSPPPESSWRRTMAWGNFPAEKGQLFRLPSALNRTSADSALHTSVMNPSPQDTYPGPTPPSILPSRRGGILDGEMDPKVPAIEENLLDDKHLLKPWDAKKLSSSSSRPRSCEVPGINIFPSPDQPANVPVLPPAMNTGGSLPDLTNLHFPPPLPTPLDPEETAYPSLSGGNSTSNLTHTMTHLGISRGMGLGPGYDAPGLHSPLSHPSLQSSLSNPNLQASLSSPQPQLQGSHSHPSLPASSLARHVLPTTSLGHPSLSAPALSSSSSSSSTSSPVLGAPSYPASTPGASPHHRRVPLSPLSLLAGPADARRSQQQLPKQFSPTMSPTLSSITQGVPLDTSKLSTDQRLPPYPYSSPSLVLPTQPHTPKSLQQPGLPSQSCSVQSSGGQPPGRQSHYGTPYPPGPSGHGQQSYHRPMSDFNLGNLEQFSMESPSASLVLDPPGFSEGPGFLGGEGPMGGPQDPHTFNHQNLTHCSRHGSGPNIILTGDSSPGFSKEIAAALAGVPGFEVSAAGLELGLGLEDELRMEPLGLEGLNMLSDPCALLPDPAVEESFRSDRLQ
substance,measurement,setting,value
purified AMPK (AMP-activated protein kinase) (Upstate Biotech),"in vitro kinase assay, 32P incorporation",[1],"Activated AMPK phosphorylated wild-type, but not Ser171Ala mutant GST-TORC2 (161-181) peptide in vitro"
same,"in vitro kinase assay, 32P incorporation",[2],"Activated AMPK phosphorylated wild-type, but not Ser171Ala mutant GST-TORC2 (161-181) peptide in vitro"
